B1: bFGF: cytokine permanently expressed by STO feeder cells transduced with pMX expression vector (protein, UniProt P15655 10-154, looked up)
Fibroblast growth factor 2: PALPEDGGAAFPPGHFKDPKRLYCKNGGFFLRIHPDGRVDGVREKSDPHVKLQLQAEERGVVSIKGVCANRYLAMKEDGRLLASKCVTEECFFFERLESNNYNTYRSRKYSSWYVALKRTGQYKLGSKTGPGQKAILFLPMSAKS
B2: SCF: cytokine permanently expressed by STO feeder cells transduced with pMX expression vector (protein, UniProt P20826 26-190, looked up)
Soluble KIT ligand: KEICGNPVTDNVKDITKLVANLPNDYMITLNYVAGMDVLPSHCWLRDMVIQLSLSLTTLLDKFSNISEGLSNYSIIDKLGKIVDDLVLCMEENAPKNIKESPKRPETRSFTPEEFFSIFNRSIDAFKDFMVASDTSDCVLSSTLGPEKDSRVSVTKPFMLPPVAA

Assays:
[1] = tested on: Nanog-EGFP-IRES-Puro mouse MEFs; assay: iPS cell establishment with Nanog-GFP reporter, puromycin selection; format: cell-based; details: 4 factors; PD98059 final concentration 25 μM continuously added from the next day of transfection
Description: Studies were made as to whether iPS cells could be established with a reporter other than Fbx15-βgeo. […] artificial chromosome (BAC) containing the Nanog gene in the center was isolated, and then the GFP gene and the puromycin resistance gene were knocked in by recombination in E. coli (FIG. 12A). Subsequently, the above modified BAC was introduced into ES cells to confirm that the cells became GFP-positive in an undifferentiated state specific manner (data not shown). Then, these ES cells were transplanted in mouse blastocysts to create transgenic mice via chimeric mice. In these mice, GFP-positive cells were specifically observed in inner cell masses of the blastocysts or gonads of embryos at 13.5 days after fertilization (FIG. 12B). The gonads were removed from the embryos at 13.5 days after fertilization (hybrid of DBA, 129, and C57BL/6 mice), and MEFs were isolated. The isolated MEFs were confirmed to be GFP-negative (FIG. 13) by flow cytometry. These MEFs were retrovirally transduced with the 4 factors and subjected to puromycin selection, and as a result, a plural number of resistant colonies were obtained. Only about 10 to 20% of the colonies were GFP-positive. When the GFP-positive colonies were passaged, they gave morphology (FIG. 14) and proliferation (FIG. 15) similar to those of ES cells. […]

[2] = tested on: MEFs derived from the Fbx15^βgeo/βgeo mouse; assay: Effect of cytokine-producing STO feeder cells on iPS cell establishment (G418 selection); format: cell-based; details: 3 factors other than c-Myc transduced
Description: An effect of cytokine on iPS cell establishment was investigated. Expression vector (pMX retroviral vector) for basic fibroblast growth factor (bFGF) or stem cell factor (SCF) was transduced into feeder cells (STO cells) to establish cells permanently expressing the cytokines. […] As a result, the number of formed colonies increased 20 times or higher on the STO cells producing bFGF (FIG. 11) or SCF (data not shown), as compared with the culture on normal STO cells.

Molecule	percentage of GFP-positive colonies [1] [%]	colony formation with the 3 factors other than c-Myc on cytokine-producing STO cells [2]
COc1cccc(-c2cc(=O)c3ccccc3o2)c1N [PD98059]	45	
B1		colony formation was observed
B2		colony formation was observed

Source: patent US8048999B2, “Nuclear reprogramming factor” (Kyoto University, priority 2005, dated 2011)
